Results taken from the supplement of paper PMC7877785.
± gives the uncertainty stated by the source.

Test: self-splicing fitness, log relative to wild type (ln ratio); higher = more splicing; Tetrahymena group I intron in knt gene, E. coli kanamycin selection, DiMSum; sequences stand for … in CUCUCU…GGAGGGAAAAGUUAUCAGGCAUGCACCUGGUAGCUAGUCUUUAAACCAAUAGAUUGCAUCGGUUUAAAAGGCAAGACCGUCAAAUUGCGGGAAAGGGGUCAACAGCCGUUCAGUACCAAGUCUCAGGGGAAACUUUGAGAUGGCCUUGCAAAGGGUAUGGUAAUAAGCUGACGGACAUGGUCCUAACCACGCAGCCAAGUCCUAAGUCAACAGAUCUUCUGUUGAUAUGGAUGCAGUUCACAGACUAAAUGUCGGUCGGGGAAGAUGUAUUCUUCUCAUAAGAUAUAGUCGGACCUCUCCUUAAUGGGAGCUAGCGGAUGAAGUGAUGCAACACUGGAGCCGCUGGGAACUAAUUUGUAUGCGAAAGUAUAUUGAUUAGUUUUGGAGUACUCGUGGUCG
Procedure, shortened: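 DiMSum derived fitness as the error-weighted combination of fold changes across replicates, kanamycin versus no kanamycin, normalised to wild type. E. coli BL21(DE3) held the library, which randomised all eight P1ex-region intron nucleotides within the knt kanamycin-resistance gene on pET-22b(+). Six replicate transformations grew overnight at 37°C or 30°C on LB agar with or without 25 μg/mL kanamycin, also containing 100 μg/mL carbenicillin, 50 μM IPTG and 0.2% rhamnose, and pooled colonies were amplicon-sequenced on an Illumina HiSeq 2500.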

| Sequence | self-splicing fitness (ln) (30 °C) | self-splicing fitness (ln) (37 °C) |
| --- | --- | --- |
| AUGUAGCAAUAUUACGCAAA | -2.34 ± 0.33 | -1.07 ± 0.2 |
| AUGUAGCAAUAUUACGCAAU | -1.49 ± 0.13 | -1.01 ± 0.23 |
| AUGUAGCAAUAUUACGCACU | -0.786 ± 0.099 | 0.708 ± 0.14 |
| AUGUAGCAAUAUUACGCAUG | -1.38 ± 0.095 | -0.413 ± 0.12 |
| AUGUAGCAAUAUUACGCCGA | -2.44 ± 0.2 | -0.724 ± 0.16 |
| AUGUAGCAAUAUUACGCCUU | -0.114 ± 0.1 | -0.413 ± 0.13 |
| AUGUAGCAAUAUUACGCGUC | -2.6 ± 0.22 | -2.32 ± 0.3 |
| AUGUAGCAAUAUUACGCUAC | -3.14 ± 0.34 | -2.59 ± 0.34 |
| AUGUAGCAAUAUUACGCUAG | -1.61 ± 0.21 | -0.5 ± 0.22 |
| AUGUAGCAAUAUUACGCUAU | -3.81 ± 0.23 | -2.6 ± 0.23 |
| AUGUAGCAAUAUUACGGAUU | -1.57 ± 0.092 | -0.598 ± 0.091 |
| AUGUAGCAAUAUUACGGCCC | -0.72 ± 0.34 | -0.359 ± 0.25 |
| AUGUAGCAAUAUUACGGGCA | -0.222 ± 0.11 | 0.141 ± 0.1 |
| AUGUAGCAAUAUUACGGUCG | -1.44 ± 0.12 | -1.59 ± 0.17 |
| AUGUAGCAAUAUUACGUAUG | -3.84 ± 0.29 | -3.16 ± 0.28 |
| AUUAAGCAAUAUUACGAACG | -1.59 ± 0.18 | -0.243 ± 0.15 |
| AUUAAGCAAUAUUACGAAGG | -3.82 ± 0.4 | -2.5 ± 0.44 |
| AUUAAGCAAUAUUACGAAGU | -2.77 ± 0.22 | -0.565 ± 0.21 |
| AUUAAGCAAUAUUACGACAU | 0.191 ± 0.012 | 0.193 ± 0.032 |
| AUUAAGCAAUAUUACGACCG | -1.51 ± 0.1 | -0.619 ± 0.16 |
| AUUAAGCAAUAUUACGAGAG | -2.61 ± 0.24 | -1.83 ± 0.27 |
| AUUAAGCAAUAUUACGAGUG | -2.42 ± 0.1 | -2.37 ± 0.14 |
| AUUAAGCAAUAUUACGAUGC | -2.09 ± 0.15 | -1.86 ± 0.17 |
| AUUAAGCAAUAUUACGCACU | -0.21 ± 0.13 | -0.414 ± 0.13 |
| AUUAAGCAAUAUUACGCAUU | -2.35 ± 0.14 | -0.664 ± 0.13 |

| Sequence | self-splicing fitness (ln) (30 °C) | self-splicing fitness (ln) (37 °C) |
| --- | --- | --- |
| AUUAAGCAAUAUUACGCUAC | -2.45 ± 0.43 | -3.4 ± 0.35 |
| AUUAAGCAAUAUUACGCUCA | -0.292 ± 0.068 | -0.258 ± 0.091 |
| AUUAAGCAAUAUUACGGAUU | -2.03 ± 0.12 | -0.791 ± 0.15 |
| AUUAAGCAAUAUUACGGCGG | -1.18 ± 0.16 | -0.145 ± 0.18 |
| AUUAAGCAAUAUUACGGGCU | -1.31 ± 0.13 | -1.47 ± 0.17 |
| AUUAAGCAAUAUUACGGGUC | -2.81 ± 0.21 | -3.49 ± 0.37 |
| AUUAAGCAAUAUUACGGUCG | -1.59 ± 0.11 | -0.942 ± 0.12 |
| AUUAAGCAAUAUUACGUAAU | -1.66 ± 0.11 | -0.745 ± 0.14 |
| AUUAAGCAAUAUUACGUAUA | -1.48 ± 0.16 | -1.35 ± 0.14 |
| AUUAAGCAAUAUUACGUCGG | -2.34 ± 0.18 | -1.2 ± 0.22 |
| AUUAAGCAAUAUUACGUUAU | -1.22 ± 0.097 | -1.1 ± 0.15 |
| AUUAAGCAAUAUUACGUUUC | -3.77 ± 0.35 | -1.65 ± 0.26 |
| AUUAAGCAAUAUUACGUUUU | -2.27 ± 0.11 | -1.81 ± 0.12 |
| AUUCAGCAAUAUUACGAAGA | -0.761 ± 0.13 | -0.747 ± 0.12 |
| AUUCAGCAAUAUUACGAAGU | -1.52 ± 0.11 | -0.236 ± 0.12 |
| AUUCAGCAAUAUUACGAGGA | -2.81 ± 0.32 | -1.63 ± 0.16 |
| AUUCAGCAAUAUUACGAUCG | -1.87 ± 0.1 | -1.5 ± 0.12 |
| AUUCAGCAAUAUUACGAUGC | -1.27 ± 0.11 | 0.0653 ± 0.13 |
| AUUCAGCAAUAUUACGCAAA | -1.04 ± 0.14 | -0.821 ± 0.16 |
| AUUCAGCAAUAUUACGCAAC | -2.05 ± 0.18 | -0.188 ± 0.17 |
| AUUCAGCAAUAUUACGCACA | -0.671 ± 0.096 | -0.192 ± 0.1 |
| AUUCAGCAAUAUUACGCACC | -0.502 ± 0.1 | 0.457 ± 0.12 |
| AUUCAGCAAUAUUACGCAGG | -1.26 ± 0.12 | -0.594 ± 0.16 |
| AUUCAGCAAUAUUACGCGAU | -3.46 ± 0.18 | -3.23 ± 0.26 |
| AUUCAGCAAUAUUACGCUCC | -0.31 ± 0.073 | 0.274 ± 0.096 |

| Sequence | self-splicing fitness (ln) (30 °C) | self-splicing fitness (ln) (37 °C) |
| --- | --- | --- |
| AUUCAGCAAUAUUACGGAAG | -1.02 ± 0.096 | -0.0127 ± 0.11 |
| AUUCAGCAAUAUUACGGAGU | -4.52 ± 0.34 | -2.3 ± 0.23 |
| AUUCAGCAAUAUUACGGAUU | -4.2 ± 0.22 | -2.21 ± 0.2 |
| AUUCAGCAAUAUUACGGCAC | -0.847 ± 0.074 | -0.407 ± 0.096 |
| AUUCAGCAAUAUUACGGCAG | -1.14 ± 0.11 | -0.688 ± 0.14 |
| AUUCAGCAAUAUUACGGGGA | -1.93 ± 0.094 | -0.802 ± 0.083 |
| AUUCAGCAAUAUUACGGGGG | -2.77 ± 0.15 | -2.14 ± 0.16 |
| AUUCAGCAAUAUUACGGGGU | -3.78 ± 0.39 | -2.85 ± 0.26 |
| AUUCAGCAAUAUUACGGUGG | -3.09 ± 0.15 | -1.58 ± 0.14 |
| AUUCAGCAAUAUUACGUCGC | -2.74 ± 0.099 | -1.86 ± 0.11 |
| AUUCAGCAAUAUUACGUCUU | -0.0261 ± 0.083 | 0.411 ± 0.089 |
| AUUCAGCAAUAUUACGUGCG | -0.448 ± 0.095 | -0.262 ± 0.13 |
| AUUCAGCAAUAUUACGUGGU | -3 ± 0.12 | -0.786 ± 0.099 |
| AUUCAGCAAUAUUACGUUCG | -0.646 ± 0.06 | -0.898 ± 0.094 |
| AUUGAGCAAUAUUACGACGU | -0.46 ± 0.12 | -0.115 ± 0.13 |
| AUUGAGCAAUAUUACGACUG | – | -0.882 ± 0.25 |
| AUUGAGCAAUAUUACGAUGC | -1.58 ± 0.38 | – |
| AUUGAGCAAUAUUACGAUGG | -2.84 ± 0.25 | – |
| AUUGAGCAAUAUUACGAUUG | -3.62 ± 0.3 | -3.11 ± 0.26 |
| AUUGAGCAAUAUUACGCGCC | -1.62 ± 0.48 | – |
| AUUGAGCAAUAUUACGCUCA | – | -1.62 ± 0.4 |
| AUUGAGCAAUAUUACGCUUG | -2.91 ± 0.18 | -0.989 ± 0.18 |
| AUUGAGCAAUAUUACGGAAU | -1.59 ± 0.17 | -1.28 ± 0.2 |
| AUUGAGCAAUAUUACGGAUG | -3.43 ± 0.28 | -2.69 ± 0.38 |
| AUUGAGCAAUAUUACGGCGA | -1.96 ± 0.16 | -0.878 ± 0.15 |

| Sequence | self-splicing fitness (ln) (30 °C) | self-splicing fitness (ln) (37 °C) |
| --- | --- | --- |
| AUUGAGCAAUAUUACGGCUG | -1.83 ± 0.14 | -1.81 ± 0.17 |
| AUUGAGCAAUAUUACGGGCA | -2.81 ± 0.23 | -2.3 ± 0.29 |
| AUUGAGCAAUAUUACGGUAC | – | -1.72 ± 0.31 |
| AUUGAGCAAUAUUACGGUCA | -2.13 ± 0.19 | -0.756 ± 0.13 |
| AUUGAGCAAUAUUACGUAAU | -1.68 ± 0.13 | -0.364 ± 0.19 |
| AUUGAGCAAUAUUACGUCAA | -3.05 ± 0.26 | -2.6 ± 0.28 |
| AUUGAGCAAUAUUACGUGCU | -3.03 ± 0.24 | -3.17 ± 0.35 |
| AUUGAGCAAUAUUACGUGUC | -4.77 ± 0.26 | -2.53 ± 0.15 |
| AUUUAGCAAUAUUACGAACG | -0.287 ± 0.16 | -0.464 ± 0.29 |
| AUUUAGCAAUAUUACGACCG | -1.54 ± 0.24 | -0.522 ± 0.23 |
| AUUUAGCAAUAUUACGAGCG | -2.66 ± 0.23 | -1.05 ± 0.2 |
| AUUUAGCAAUAUUACGAUGG | -2.89 ± 0.34 | – |
| AUUUAGCAAUAUUACGCAGG | -3.36 ± 0.38 | – |
| AUUUAGCAAUAUUACGCCGA | -1.94 ± 0.28 | -1.09 ± 0.23 |
| AUUUAGCAAUAUUACGCUAA | -2.13 ± 0.23 | -1.3 ± 0.31 |
| AUUUAGCAAUAUUACGGAGG | -2.53 ± 0.19 | -2.06 ± 0.27 |
| AUUUAGCAAUAUUACGGCCG | -1.29 ± 0.15 | -1.6 ± 0.15 |
| AUUUAGCAAUAUUACGGUUA | -0.84 ± 0.16 | -0.183 ± 0.13 |
| AUUUAGCAAUAUUACGGUUU | -1.02 ± 0.096 | -0.0857 ± 0.12 |
| AUUUAGCAAUAUUACGUAAA | -2.28 ± 0.21 | -1.09 ± 0.18 |
| AUUUAGCAAUAUUACGUCAC | -3.2 ± 0.37 | -1.42 ± 0.32 |
| AUUUAGCAAUAUUACGUCCU | -0.237 ± 0.16 | 0.18 ± 0.23 |
